Reference: the RNAGym collection of RNA variant scans (doi:10.1073/pnas.2313332121)

B1: TPR t1 (parent)
chain: GACCAAUCUGCCCUCAGAGCUCGAGAACAUCUUCGGAUGCAGAGGAGGCAGGCUUCGGUGGCGCGAUAGCGCCAACGUCCUCAACCUCCAAUGCAUCCCACCACAUGAUGAUGCCUGAAGAGCCUUGGUUUUUUG

Variants of: B1
Test: polymerase ribozyme fitness, log enrichment relative to wild type (log ratio); higher = more active; in vitro selection for triplet polymerase activity
In short: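 To select mutant libraries of each subunit of a heterodimeric triplet polymerase ribozyme, built by PCR and transcribed, each was annealed with a biotinylated primer, partner subunit and triplets, then incubated frozen at −7 °C. Extended constructs were gel-excised, captured on streptavidin beads and amplified by RT-PCR, in one round carried out in triplicate. Illumina sequencing of input and output libraries kept genotypes with ≥10 input reads and ≥1 read per output. Fitness is the base-2 logarithm of genotype enrichment relative to wild-type enrichment, from inverse-variance-weighted replicate averages.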

Q: With GACCAAUCUGCCCUCAGAGCUCGAGAAAAUCUUCGGAUGCAGAGGAGGCAGGCUUCGGUGGCGCGAUAGCGCCAACGUCCUCUACCUCCAAUGCAUCCCACCACAUGAUUAUGCCUGAAGAGCCUUGGUUUUUUG as the variant, how does the “polymerase ribozyme fitness (log ratio)” value read?
A: Its value is 1.66.

Q: With GACCAAUCUGCCCUCAGAGCUCGAGAAAAUCUUCGGAUGCAGAGGAGGCAGGCUUCGGUGGCGCGAUAGCGGCAACGUCCUCAACCUCCAAUGCAUCCCACCACAUGAUGAUGCCUGAAGAGUCCUGGUUUUUUG as the variant, how does the “polymerase ribozyme fitness (log ratio)” value read?
A: Its value is -4.42.

Q: For GACCAAUCUGCCCUCAGAGCUCGAGAUCAUCUUCGGAUGCAGAGGAGGCAGGCUUCGGUGGCGCGAUAGCGCCAACGCCCUCAACCUCCAAUGCAUCCCACCACAUGAUGAUGCCUGAAGAGCCUUGGUUUUUUG, which “polymerase ribozyme fitness (log ratio)” value is on record?
A: Its value is -2.98.

Q: Which “polymerase ribozyme fitness (log ratio)” value does the source give for GACCAAUCUGCCCUCAGAGCUCGAGAUCAUCUUCGGAUGCAGAGGAGGCAGGCUUCGGUGGCGCGAUAGCUCCAACGUCCUCAACCUCCAAUGAAUCCCACCACAUGAUGAUGCCUGAAGAGCCUUGGUUUUUUG here?
A: The value was -4.88.

Q: With GACCAAUCUGCCCUCAGAGCUCGAGAUCAUCUUCGGAUGCAGAGGAGGCAGGCUUCGGUGCCGCGAUAGCGCCAACGUCCUCAACCUCCAAUGCAUCCCACCACAUGAUGAUGCCUGAAGAGCCUUGGUUUUUUG as the variant, how does the “polymerase ribozyme fitness (log ratio)” value read?
A: The value was -5.97.

Q: With GACCAAUCUGCCCUCAGAGCUCGAGAUCAUCUUCGGAUGCAGAGGAGGCAGGCUUCGGUGGCGCGAUAGCGCCAACGUCCUGAACCUCCAAUGCAUCCCACCACAAGAUGAUGCCUGAACAGCCUUGGUUUUUUG as the variant, how does the “polymerase ribozyme fitness (log ratio)” value read?
A: Its value is -1.62.

Q: For GACCAAUCUGCCCUCAGAGCUCGAGAUCAUCUUCGCAUGCAGAGGAGGCAGGCUUCGGUGGCGCGAUAGCGCCAACGUCCUCAACCUCCAAUGCAUCCCACCACAUGAUGAUGCCUGAAGAGCCUUGGUUUUUUG, which “polymerase ribozyme fitness (log ratio)” value is on record?
A: The value was -3.53.

Q: For GACCAAUCUGCCCUCAGAGCUCGAGAUCAUCUUCGGAUGCAGAGGAGGCAGGCUUCGGUGGCGCGAUAGCGCCAACGUCCUCAACCUCCAAUGGAUCCCACCACAUGAUGAUGCCUGAAGAGCCUUGGUUUUUUG, which “polymerase ribozyme fitness (log ratio)” value is on record?
A: The value was -5.02.

Q: Which “polymerase ribozyme fitness (log ratio)” value does the source give for GACCAAUCUGCCCUCAGAGCUCGAGAUCAUCUUCGGAUGCAGAGGAUGCAGGCUUUGGUGGCGCGAUAGCGCCAACGUCCUCAACCUCCAAUGCAUCCCACCACAUGAUGAUGCCUGAAGAGCCUUGGUUUUUUG here?
A: Its value is -4.13.

Q: For GACCAAUCUGCCCUCAGAGCUCGAGAAAAUCUUCGGAUGCAGAGGAGGCAGGCUUCGGUGGCGCGAUAGCGACAACGUCCUCAACCUCCAAUGCAUCCCACCACAUGAUGAUGCCUGAAGAGCCUUGGUUUUUUG, which “polymerase ribozyme fitness (log ratio)” value is on record?
A: The value was -3.59.

Q: Which “polymerase ribozyme fitness (log ratio)” value does the source give for GACCAAUCUGCCCUCAGAGCUCGAGAUCAUCUUCGGAUGCAGAGGAGGCAGGCUUCGGUGGCGCGAUAGCGGCAACGUCCUCAACCUCCAAUGCAUCCCACCACAUGAUGAUGCCUGAAGAGCCUUGGUUUUUUG here?
A: The value was -3.21.

Q: With GACCAAUCUGCCCUCAGAGCUCGAGAUCAUCUUCGGAUGCAGAGGAGGCAGGCUUCGGUGGCGCGAUAGCGCCAACGUCCUCAACCUCCAAUGCAUUCCACCACAUGAUGAUGCCUGAAGAGCCUUGGUCUUUUG as the variant, how does the “polymerase ribozyme fitness (log ratio)” value read?
A: The value was -3.37.

Q: With GACCAAUCUGCCCUCAGAGCUCGAGAUCAUCUUCGGAUGCAGAGGAGGCAGGCUUCGGUGGCGCGAUAGCGGCAACGACCUCAACCUCCAAUGCAUCCCACCACAUGAUGAUGCCUGAAGAGCCUUGGUUUUUUG as the variant, how does the “polymerase ribozyme fitness (log ratio)” value read?
A: The value was -3.94.

Q: For GACCAAUCUGCCCUCAGAGCUCGAGAUCAUCUUCGGAUGCAGAGGAGGCAGGCUUCGGUGGCGCGAUAGCGCCAACGUCCUCAACCUCCAAUGCAUCCCACCACAUGAUGAUGCCUGAAGAGCUUUGGUUUUUUG, which “polymerase ribozyme fitness (log ratio)” value is on record?
A: Its value is -0.949.

Q: With GACCAAUCUGCCCUCAGAGCUCGAGAUCAUCUUCGGAUGCAGAGGAGGCAGGCUUCGGUGGCGCGAUAGCGCUAACGUCCUCAACCUCCAAUGCAUCCCACCACAUGAUGAUGCCUGAAGAGCCUUGGUUUUUUG as the variant, how does the “polymerase ribozyme fitness (log ratio)” value read?
A: Its value is -2.99.

Q: With GACCAAUCUGCCCUCAGAGCUCGAGAAAAUCUUCGGAUGCAGAGGAGGCCGGCUUCGGUGGCGCGAUAGCGCCAACGUCCUUAACCUCCAAUGCAUCCCACCACAUGAUGAUGCAUGAAGAGCCUUGGUUUUUUG as the variant, how does the “polymerase ribozyme fitness (log ratio)” value read?
A: Its value is -4.58.

Q: Which “polymerase ribozyme fitness (log ratio)” value does the source give for GACCAAUCUGCCCUCAGAGCUCGAGAUCAUCUUCGGAUGCAGAGGAGGCAGGCUUCGGUGGCGCGAUAGCGCCAACGUCCUCAACCUCCAAUGCAGCCCACCACAUGAUUAUGCCUGAAGAGCCUUGGUUUUUUG here?
A: Its value is -7.43.

Q: Which “polymerase ribozyme fitness (log ratio)” value does the source give for GACCAAUCUGCCCUCAGAGCUCGAGAUCAUCUUCGGAUGCAGAGGAGGCAGGCUUCGGUAGCGCGAUAGCGCCAACGUCCUCAACCUCCAAUGCAUCCCACCACAUGAUGAUGCCUGAAGAGCCUUGGUUUUUUG here?
A: Its value is -3.35.

Q: For GACCAAUCUGCCCUCAGAGCUCGAGAAAAUCUUCGGAUGCAGAGGAGGCAGGCUUCGGUGGAGCGAUAGCGCCAACGUCCUCAACCUCCAAUGCAUCCCACCACAUGAUGAUGCCUGAAGAGCCUUGGUUUUUUG, which “polymerase ribozyme fitness (log ratio)” value is on record?
A: The value was -5.73.

Q: For GACCAAUCUGCCCUCAGAGCUCGAGAAAAUCUUCGGAUGGAGAGGAGGCAGGCUUCGGUGGCGCGAUAGCGCCAACGUCCUCAACCUCCAAUGCAUCCCACCACAUGAUGAUGCCUGAAGAGCCUUGGUUUUUUG, which “polymerase ribozyme fitness (log ratio)” value is on record?
A: Its value is -6.86.

Q: For GACCAAUCUGCCCUCAGAGCUCGAGAUCAUCUUCGGAUGCAGAGGAGGCAGGCUUCGGUGGCGCGAUAGCGCCAAUGUCCUCAACCUCCAAUGCAUCCCUCCACAUGAUGAUGCCUGAACAGCCUUGGUUUUUUG, which “polymerase ribozyme fitness (log ratio)” value is on record?
A: Its value is -3.8.
